In article PMC4705477, “Biochemical Characterization of Nonamer Binding Domain of RAG1 Reveals its Thymine Preference with Respect to Length and Position”:

Target: T1, NBD (nonamer binding domain of RAG1) (mouse, UniProt P15919 384-461)
T1 sequence: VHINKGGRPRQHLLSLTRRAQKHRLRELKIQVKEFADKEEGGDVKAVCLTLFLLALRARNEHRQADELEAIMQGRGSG
Assay: EMSA; 5 mM Ca2+; printed as 'binding constant'; NBD EMSA: 10 mM Tris-HCl pH 7.5, 33 mM KCl, 5 mM CaCl2, 2 mM DTT, 0.1 mg/ml BSA, 6% glycerol, 15 min 30 C; cRAG EMSA: 22.5 mM MOPS-KOH pH 7.0, 20% DMSO, 2.2 mM
Conditions: protein: recombinant; tags: N-terminal His6 (pET28a); label: 5' 32P on AKN3; 5' overhang 1 nt at both ends

B1: 23RSS (II, AKN3/AKN4) (dsDNA)
DNA 1: GATCAGCTGACAGTAGCACAGTGGTAGTACTCCACTCTCTGGCTGTACAAAAACCCTGCT
DNA 2: TAGCAGGGTTTTTGTACAGCCAGAGAGTGGAGTACTACCACTGTGCTACTGTCAGCTGAT
Kd: 13.9 ± 3.3 µM
